Source: paper PMC3953333, “Sterol Regulatory Element-Binding Proteins Are Regulators of the Rat Thyroid Peroxidase Gene in Thyroid Cells”

B1: rTPO VI mut1 (dsDNA)
DNA 1: AGCTCAGGCCTCTCCTCAGGTGGGTCCTCATGGCT
DNA 2: TCGAAGCCATGAGGACCCACCTGAGGAGAGGCCTG
B2: rTPO VI mut2 (dsDNA)
DNA 1: AGCTCAGGCCTCTCCTCAGGTGGGGTTGACCAAGT
DNA 2: TCGAACTTGGTCAACCCCACCTGAGGAGAGGCCTG
B3: rTPO VI mut3 (dsDNA)
DNA 1: AGCTCAGGCCTCTCCTCAGACTAATCCTCCCAAGT
DNA 2: TCGAACTTGGGAGGATTAGTCTGAGGAGAGGCCTG
B4: rTPO VI mut5 (dsDNA)
DNA 1: AGCTCAGGCGGAAACTCAGGTGGGTCCTCCCAAGT
DNA 2: TCGAACTTGGGAGGACCCACCTGAGTTTCCGCCTG
B5: rTPO VI mut4 (dsDNA)
DNA 1: AGCTCAGGCCTCTCAGATAGTGGGTCCTCCCAAGT
DNA 2: TCGAACTTGGGAGGACCCACTATCTGAGAGGCCTG
B6: rTPO III mut3 (dsDNA)
DNA 1: AGCTGATAATCAGATTCGAAGCAGAATACT
DNA 2: TCGAAGTATTCTGCTTCGAATCTGATTATC
B7: rTPO III (dsDNA)
DNA 1: AGCTGATAATCAGAAAGTCAGCAGAATACT
DNA 2: TCGAAGTATTCTGCTGACTTTCTGATTATC
B8: rTPO III mut1 (dsDNA)
DNA 1: AGCTGATAATCAGAAAGTCAGCAGTTCTAG
DNA 2: TCGACTAGAACTGCTGACTTTCTGATTATC
B9: rTPO III mut2 (dsDNA)
DNA 1: AGCTGATAATCAGAAAGTCGTATTAATACT
DNA 2: TCGAAGTATTAATACGACTTTCTGATTATC
B10: rTPO VI mut6 (dsDNA)
DNA 1: AGCTTGTAACTCTCCTCAGGTGGGTCCTCCCAAGT
DNA 2: TCGAACTTGGGAGGACCCACCTGAGGAGAGTTACA
B11: rTPO IV (dsDNA)
DNA 1: AGCTATACTGTGGGATGTACCATA
DNA 2: TCGATATGGTACATCCCACAGTAT
B12: rTPO III mut5 (dsDNA)
DNA 1: AGCTTCGTTTCAGAAAGTCAGCAGAATACT
DNA 2: TCGAAGTATTCTGCTGACTTTCTGAAACGA
B13: rTPO V (dsDNA)
DNA 1: AGCTGTGGGATGTACCATAAATACCCAGG
DNA 2: TCGACCTGGGTATTTATGGTACATCCCAC
B14: rTPO III mut4 (dsDNA)
DNA 1: AGCTGATAAGATTCAAGTCAGCAGAATACT
DNA 2: TCGAAGTATTCTGCTGACTTGAATCTTATC
B15: rTPO VI (dsDNA)
DNA 1: AGCTCAGGCCTCTCCTCAGGTGGGTCCTCCCAAGT
DNA 2: TCGAACTTGGGAGGACCCACCTGAGGAGAGGCCTG
B16: rTPO II (dsDNA)
DNA 1: AGCTTTGCAGTGGGGAAGAGATAA
DNA 2: TCGATTATCTCTTCCCCACTGCAA
B17: rTPO I (dsDNA)
DNA 1: GATCTCTGGGGTTGCAGTGGGGAAGA
DNA 2: TCGATCTTCCCCACTGCAACCCCAGA
B18: rTPO IVmut (dsDNA)
DNA 1: AGCTATACTGTGTTACTTACCATA
DNA 2: TCGATATGGTAAGTAACACAGTAT

Target: T1, nuclear SREBP-2 (nSREBP-2) (rat, UniProt Q3T1I5 1-476)
T1 sequence: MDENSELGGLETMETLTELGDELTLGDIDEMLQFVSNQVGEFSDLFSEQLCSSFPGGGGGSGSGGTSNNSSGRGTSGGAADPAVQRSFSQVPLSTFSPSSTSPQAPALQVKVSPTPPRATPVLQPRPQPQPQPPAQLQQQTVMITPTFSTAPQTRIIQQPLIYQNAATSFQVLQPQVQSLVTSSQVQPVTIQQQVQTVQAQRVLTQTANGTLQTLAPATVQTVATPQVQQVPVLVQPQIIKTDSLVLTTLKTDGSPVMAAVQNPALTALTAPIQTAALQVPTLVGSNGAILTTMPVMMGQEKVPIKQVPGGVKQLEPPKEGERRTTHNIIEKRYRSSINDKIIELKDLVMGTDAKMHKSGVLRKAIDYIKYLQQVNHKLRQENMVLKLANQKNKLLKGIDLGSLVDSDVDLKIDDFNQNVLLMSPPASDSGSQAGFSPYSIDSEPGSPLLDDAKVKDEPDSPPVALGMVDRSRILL
Experiment: EMSA; EMSA with DIG-labeled annealed oligonucleotides (Roche DIG Gel Shift Kit, 2nd Generation) and TNT T7 in vitro-translated proteins; buffer, salt, pH and temperature not stated (ref 19)
Details: protein: ivt; chain copies: 2; label: DIG end-label; 5' overhangs 4 nt (AGCT / TCGA)

| Binder | binding result |
| --- | --- |
| B1 | binds |
| B2 | binds |
| B3 | binds |
| B4 | binds |
| B5 | no binding |
| B6 | no binding |
| B7 | binds |
| B8 | binds |
| B9 | no binding |
| B10 | binds |
| B11 | no binding |
| B12 | binds |
| B13 | no binding |
| B14 | binds |
| B15 | binds |
| B16 | no binding |

Same assay, conditions: protein: ivt; chain copies: 2; label: DIG end-label; 5' overhangs 4 nt (GATC / TCGA)

| Binder | binding result |
| --- | --- |
| B17 | no binding |

Target: T2, nuclear SREBP-1c (nSREBP-1c) (rat, UniProt P56720-1 1-456)
T2 sequence: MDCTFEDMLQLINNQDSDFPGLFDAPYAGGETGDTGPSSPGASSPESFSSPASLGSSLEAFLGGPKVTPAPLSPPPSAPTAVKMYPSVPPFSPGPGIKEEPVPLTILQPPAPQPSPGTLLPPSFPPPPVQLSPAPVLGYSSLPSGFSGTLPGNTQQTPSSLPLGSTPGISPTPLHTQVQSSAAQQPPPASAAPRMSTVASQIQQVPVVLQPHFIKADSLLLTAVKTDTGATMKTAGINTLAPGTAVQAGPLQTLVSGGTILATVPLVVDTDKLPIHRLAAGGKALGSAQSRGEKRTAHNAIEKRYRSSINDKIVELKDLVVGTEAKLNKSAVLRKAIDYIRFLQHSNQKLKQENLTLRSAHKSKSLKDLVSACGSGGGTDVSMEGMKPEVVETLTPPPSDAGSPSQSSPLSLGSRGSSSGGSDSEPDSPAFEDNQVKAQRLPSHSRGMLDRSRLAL
Experiment: as above
Details: protein: ivt; chain copies: 2; label: DIG end-label; 5' overhangs 4 nt (AGCT / TCGA)

| Binder | binding result |
| --- | --- |
| B1 | binds |
| B2 | binds |
| B3 | binds |
| B4 | binds |
| B5 | no binding |
| B6 | no binding |
| B7 | binds |
| B8 | binds |
| B9 | no binding |
| B10 | binds |
| B11 | binds |
| B12 | binds |
| B13 | no binding |
| B18 | no binding |
| B14 | binds |
| B15 | binds |
| B16 | no binding |

Same assay, conditions: protein: ivt; chain copies: 2; label: DIG end-label; 5' overhangs 4 nt (GATC / TCGA)

| Binder | binding result |
| --- | --- |
| B17 | no binding |
